From US20240383953A1 (BAYLOR COLLEGE OF MEDICINE, published 2024)

Target: the molecule itself
Assay: DSSO chemical crosslinking in HEK 293T cells
Text: Applicant tested if endogenous NANOG could spontaneously assemble in H9 human embryonic stem cells (ESCs) as well as nucleofected NANOG in differentiated HEK 293T mammalian cells.

B1: NANOG ΔWR deletion mutant expressed in HEK 293T cells (other, human, UniProt Q9H9S0 1-305, looked up)
chain: MSVDPACPQSLPCFEASDCKESSPMPVICGPEENYPSLQMSSAEMPHTETVSPLPSSMDLLIQDSPDSSTSPKGKQPTSAEKSVAKKEDKVPVKKQKTRTVFSSTQLCVLNDRFQRQKYLSLQQMQELSNILNLSYKQVKTWFQNQRMKSKRWQKNNWPKNSNGVTQKASAPTYPSLYSSYHQGCLVNPTGNLPMYNCGEESLQSCMQFQPNSPASDLEAALEAAGEGLNVIQQTTRYFSTPQTMDLFLNYSMNMQPEDV
notes: whole, on cells; also called WR mutants
B1: no binding.
